# Bridge positions count the residues as written; N and C are the ends. Square brackets hold non-standard residues; d marks the D form. hArg = N=C(N)NCCCC[C@H](N)C(=O)O; Cit = NC(=O)NCCC[C@H](N)C(=O)O
# Molecular target: CGRP1 receptor (CRLR/RAMP1 complex) of human neuroblastoma SK-N-MC cells (human, UniProt Q16602 23-461; O60894 27-148)
# Experiment: cell-based or functional assay
# Sequence of CGRP1 receptor (CRLR/RAMP1 complex) of human neuroblastoma SK-N-MC cells (Q16602 23-461, chain 1 of 2): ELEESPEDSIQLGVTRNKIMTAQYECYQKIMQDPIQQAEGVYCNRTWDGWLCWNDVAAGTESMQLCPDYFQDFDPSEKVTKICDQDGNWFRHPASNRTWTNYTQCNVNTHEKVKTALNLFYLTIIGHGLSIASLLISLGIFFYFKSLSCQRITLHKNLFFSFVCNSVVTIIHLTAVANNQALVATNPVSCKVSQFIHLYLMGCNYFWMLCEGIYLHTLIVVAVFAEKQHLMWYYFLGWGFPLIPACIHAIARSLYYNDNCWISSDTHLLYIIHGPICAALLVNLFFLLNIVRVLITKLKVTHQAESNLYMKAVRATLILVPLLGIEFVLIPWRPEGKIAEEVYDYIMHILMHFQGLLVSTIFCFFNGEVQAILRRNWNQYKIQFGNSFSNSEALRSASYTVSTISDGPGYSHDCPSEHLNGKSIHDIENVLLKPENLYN
# Sequence of CGRP1 receptor (CRLR/RAMP1 complex) of human neuroblastoma SK-N-MC cells (O60894 27-148, chain 2 of 2): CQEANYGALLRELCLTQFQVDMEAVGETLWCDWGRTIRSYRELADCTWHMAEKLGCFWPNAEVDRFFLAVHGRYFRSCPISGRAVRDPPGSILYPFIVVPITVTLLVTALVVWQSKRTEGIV
Binder,PEG-peptide IC50,Peptide IC50
"Ac-WVEH[hArg]LKGLLS[Cit]SGGVVRKNFVPTDVGPFAF-NH2 (lactam 3-7; also: PEG-conjugated, in most cases at Lys25) [PEG-peptide of SEQ ID NO 894]",3.54 nM,–
Ac-WVEHRLKGLLS[Cit]SGGVVRKNFVPTDVGPFAF-NH2 (lactam 3-7; SMILES CC(=O)N[C@@H](Cc1c[nH]c2ccccc12)C(=O)N[C@H](C(=O)N[C@H]1CCC(=O)NCCCC[C@@H](C(=O)NCC(=O)N[C@@H](CC(C)C)C(=O)N[C@@H](CC(C)C)C(=O)N[C@@H](CO)C(=O)N[C@@H](CCCNC(N)=O)C(=O)N[C@@H](CO)C(=O)NCC(=O)NCC(=O)N[C@H](C(=O)N[C@H](C(=O)N[C@@H](CCCNC(=N)N)C(=O)N[C@@H](CCCCN)C(=O)N[C@@H](CC(N)=O)C(=O)N[C@@H](Cc2ccccc2)C(=O)N[C@H](C(=O)N2CCC[C@H]2C(=O)N[C@H](C(=O)N[C@@H](CC(=O)O)C(=O)N[C@H](C(=O)NCC(=O)N2CCC[C@H]2C(=O)N[C@@H](Cc2ccccc2)C(=O)N[C@@H](C)C(=O)N[C@@H](Cc2ccccc2)C(N)=O)C(C)C)[C@@H](C)O)C(C)C)C(C)C)C(C)C)NC(=O)[C@H](CC(C)C)NC(=O)[C@H](CCCNC(=N)N)NC(=O)[C@H](Cc2c[nH]cn2)NC1=O)C(C)C) [SEQ ID NO 895],–,2.8 nM
Ac-WVEHRLKGLLS[Cit]SGGVVRKNFVPTDVGPFAF-NH2 (lactam 3-7; SMILES CC(=O)N[C@@H](Cc1c[nH]c2ccccc12)C(=O)N[C@H](C(=O)N[C@H]1CCC(=O)NCCCC[C@@H](C(=O)NCC(=O)N[C@@H](CC(C)C)C(=O)N[C@@H](CC(C)C)C(=O)N[C@@H](CO)C(=O)N[C@@H](CCCNC(N)=O)C(=O)N[C@@H](CO)C(=O)NCC(=O)NCC(=O)N[C@H](C(=O)N[C@H](C(=O)N[C@@H](CCCNC(=N)N)C(=O)N[C@@H](CCCCN)C(=O)N[C@@H](CC(N)=O)C(=O)N[C@@H](Cc2ccccc2)C(=O)N[C@H](C(=O)N2CCC[C@H]2C(=O)N[C@H](C(=O)N[C@@H](CC(=O)O)C(=O)N[C@H](C(=O)NCC(=O)N2CCC[C@H]2C(=O)N[C@@H](Cc2ccccc2)C(=O)N[C@@H](C)C(=O)N[C@@H](Cc2ccccc2)C(N)=O)C(C)C)[C@@H](C)O)C(C)C)C(C)C)C(C)C)NC(=O)[C@H](CC(C)C)NC(=O)[C@H](CCCNC(=N)N)NC(=O)[C@H](Cc2c[nH]cn2)NC1=O)C(C)C) [SEQ ID NO 893],–,1.64 nM
Ac-WVEH[hArg]LKGLLS[Cit]SGGVVRKNFVPTDVGPFAF-NH2 (lactam 3-7) [SEQ ID NO 894],–,1.26 nM
Ac-WVEHRLKGLLS[Cit]SGGVVRKNFVPTDVGPFAF-NH2 (lactam 3-7; SMILES CC(=O)N[C@@H](Cc1c[nH]c2ccccc12)C(=O)N[C@H](C(=O)N[C@H]1CCC(=O)NCCCC[C@@H](C(=O)NCC(=O)N[C@@H](CC(C)C)C(=O)N[C@@H](CC(C)C)C(=O)N[C@@H](CO)C(=O)N[C@@H](CCCNC(N)=O)C(=O)N[C@@H](CO)C(=O)NCC(=O)NCC(=O)N[C@H](C(=O)N[C@H](C(=O)N[C@@H](CCCNC(=N)N)C(=O)N[C@@H](CCCCN)C(=O)N[C@@H](CC(N)=O)C(=O)N[C@@H](Cc2ccccc2)C(=O)N[C@H](C(=O)N2CCC[C@H]2C(=O)N[C@H](C(=O)N[C@@H](CC(=O)O)C(=O)N[C@H](C(=O)NCC(=O)N2CCC[C@H]2C(=O)N[C@@H](Cc2ccccc2)C(=O)N[C@@H](C)C(=O)N[C@@H](Cc2ccccc2)C(N)=O)C(C)C)[C@@H](C)O)C(C)C)C(C)C)C(C)C)NC(=O)[C@H](CC(C)C)NC(=O)[C@H](CCCNC(=N)N)NC(=O)[C@H](Cc2c[nH]cn2)NC1=O)C(C)C) [SEQ ID NO 896],–,1.61 nM
